83 variants from the RNAGym collection of RNA variant scans (doi:10.1073/pnas.2313332121) can be followed below.

The labels stand for the following.
B1: TPR t1 (parent)
chain: GACCAAUCUGCCCUCAGAGCUCGAGAACAUCUUCGGAUGCAGAGGAGGCAGGCUUCGGUGGCGCGAUAGCGCCAACGUCCUCAACCUCCAAUGCAUCCCACCACAUGAUGAUGCCUGAAGAGCCUUGGUUUUUUG

In the data set the parent is B1. The data set can be described thus: polymerase ribozyme fitness, log enrichment relative to wild type (log ratio); higher = more active; in vitro selection for triplet polymerase activity. An outline of the steps: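 A heterodimeric triplet polymerase ribozyme had each of its subunits mutagenized by PCR into a library, which was transcribed. One round of in vitro selection, done in triplicate, annealed each library with a biotinylated primer, its partner subunit and triplets, then incubated it frozen at −7 °C before gel excision of extended constructs, streptavidin-bead capture and RT-PCR. Fitness is the logarithm of genotype enrichment relative to wild-type enrichment, based on Illumina sequencing of inputs and outputs and inverse-variance-weighted replicate averages. A base-2 logarithm is used, and genotypes were kept only with ≥10 input reads and ≥1 read per output.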
In the case of G45U U78C, the “polymerase ribozyme fitness (log ratio)” value is -1.46. The same measure for C80U C101U G128A: -2.13; for U54G G71U A74U G113C A121U: -7.2. Then C12U C20G A43C G48A C62U, with -6.08; and A2U G39C G45A U132A, with -3.5; and G51U C89A, with -5.25. Regarding C73A C79G, the “polymerase ribozyme fitness (log ratio)” value is -2.94. Then C20U U32G, with -6.33; and G39U C56A A84C G113U, with -4.13. Then G63U C82A C104U A108C, with -6.05; and A37U C72U U96A, with -0.172.

Regarding C4G C8U C12A G42A G71A U106A U112G, the “polymerase ribozyme fitness (log ratio)” value is -4.39. On to C11G G42C A68U C72A A91U G113C, for which the “polymerase ribozyme fitness (log ratio)” value is -8.47.

In the case of A74C C82U A95C, the “polymerase ribozyme fitness (log ratio)” value was -0.152. The same measure for C15G C70G C86A G120A: -4.5; for C115A C124U: 0.564. Then U7A C13G G63U G93A C102G C115U A121G, with -7.01. The same measure for C3U U78C U87G: -0.313.

Turning to C11G U130A, the “polymerase ribozyme fitness (log ratio)” value was 0.0419. As to A41G G44A C123U, the “polymerase ribozyme fitness (log ratio)” value is 0.224.

For the variant G19U G110C, the “polymerase ribozyme fitness (log ratio)” value was -5.06. The same measure for A29U G48A G63C A111C: -2.36; for G36A G60C U78C C79U C85A A90G: -3.89.

Take G51A U112A: the “polymerase ribozyme fitness (log ratio)” value is -1.47. The same measure for C31U G71U C124G: -3.59; for A6U G71U C82G: -0.9; for G69U C82U: -0.267.

In the case of G69U C82G, the “polymerase ribozyme fitness (log ratio)” value is -1.46. The same measure for C8G C40G U54C C99U C104U: -2.91; for C13U C86U: -0.506. Regarding C70A G128U, the “polymerase ribozyme fitness (log ratio)” value was -3.9. For the variant A43C C70U C82A A91U G93U U96C C124G, the “polymerase ribozyme fitness (log ratio)” value was -3.67. Take C12G C28U: the “polymerase ribozyme fitness (log ratio)” value was -0.928. U9A U78C U96A C124U: the “polymerase ribozyme fitness (log ratio)” value worked out at 1.26. As for G117C G120C, the “polymerase ribozyme fitness (log ratio)” value is -3.46.

Regarding C49G C123U, the “polymerase ribozyme fitness (log ratio)” value was determined as 0.717.

Regarding C40G U67C C70U U116C U133C, the “polymerase ribozyme fitness (log ratio)” value is -5.53. Then A46G C53U G113A, with -2.14; and C34U U87A, with -4.77. Consider G71C G113A, for which the “polymerase ribozyme fitness (log ratio)” value was -1.54.

On to U30C G61A C79G, for which the “polymerase ribozyme fitness (log ratio)” value was -4.69.

Turning to A2U A6G G17U G39U G52U C73G, the “polymerase ribozyme fitness (log ratio)” value is -5.54. The same measure for U32C G60C U106A G113A C124U: -3.04. The same measure for C49G A95U A111G: -0.422. Then C13U C15G C88A U96C, with -2.33; and U14G C114U U132A, with -7.19.

Turning to C53U G69U C73U, the “polymerase ribozyme fitness (log ratio)” value came to 0.0642.

On to G39A G48A C73A A100C G120A, for which the “polymerase ribozyme fitness (log ratio)” value is -0.862. The same measure for G93U U112A: 0.151; for A43C C56A U59A C72U: -3.55; for C8G C34U C70A G117A U126A: -6.92.

As to C13U A27G, the “polymerase ribozyme fitness (log ratio)” value is -2.05.

For the variant G120U G128C, the “polymerase ribozyme fitness (log ratio)” value was -1.03. Then C12U G17C G71A C97G C115G, with -4.83; and G48C G61C C123G, with -0.406.

C4U A43U C56G C89U U112C: the “polymerase ribozyme fitness (log ratio)” value was -0.836.

On to C12G C34G G69U A83C, for which the “polymerase ribozyme fitness (log ratio)” value is -3.04. Then C70G A84G, with -5.21. Then A27C C72A, with -3.22. For A26G G44C, the “polymerase ribozyme fitness (log ratio)” value was -2.38. The same measure for G10U C15U C56A C72G G120A: -0.935; for G69A G93U A111G G122A: -5.44; for C3U G77U G120C: 0.534.

Consider C80G C124A, for which the “polymerase ribozyme fitness (log ratio)” value is -5.18. The same measure for A6C G10A U30C G71A: -5.5. Take G60A C62U C79G U106G: the “polymerase ribozyme fitness (log ratio)” value is -5.51. For U78G A95C, the “polymerase ribozyme fitness (log ratio)” value is -0.597. Then C40A A43U, with -2.77; and G35A G39A C70U C72U U109G C124U, with -7.05. Then G47C G117U, with -4.33; and U21G C53U C123G, with 0.377. The same measure for C56U G65A A83U: -6.42; for C11U C20A G42C C102U U112C C124G: -5.12. Take C11A C15U G44U C72A U129A U132C: the “polymerase ribozyme fitness (log ratio)” value is -5.25. The same measure for U7C C56U C72U U130G: -0.275; for C80U G120U U129G: -0.816. Then A95C A108G G110U, with -4; and C4A G61A, with -1.34; and G17A G63U U133C, with -3.8. The same measure for G51A G71A: -4.53. Consider G61C A83C C89U, for which the “polymerase ribozyme fitness (log ratio)” value was -2.95. Then C4U C11G C49U G51A C72U C80U C94G, with -1.9; and C8G C20U G42U A83U U116C C123A, with -3.74.
